Measurements: patent publication US20070129307A1 (UNIVERSITY OF BRITISH COLUMBIA, published 2007)

T1: murine MHC class I molecule, H-2Kd (mouse, UniProt P01887 21-119; P01902 22-368, limits assumed)
T1 construct: whole, on cells; MHC class I molecule on the surface of RMAS-Kd cells
T1 sequence (MHC heavy, looked up): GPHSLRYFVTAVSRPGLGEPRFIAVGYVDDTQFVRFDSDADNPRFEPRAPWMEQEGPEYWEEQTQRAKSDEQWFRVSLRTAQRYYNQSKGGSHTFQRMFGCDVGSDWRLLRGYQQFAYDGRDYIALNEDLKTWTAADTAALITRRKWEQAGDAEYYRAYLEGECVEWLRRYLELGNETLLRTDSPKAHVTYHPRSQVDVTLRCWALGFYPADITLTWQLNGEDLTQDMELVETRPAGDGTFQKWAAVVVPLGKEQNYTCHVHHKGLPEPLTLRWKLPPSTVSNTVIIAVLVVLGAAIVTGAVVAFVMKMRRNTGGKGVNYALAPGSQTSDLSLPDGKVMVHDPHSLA
T1 sequence (b2m, looked up): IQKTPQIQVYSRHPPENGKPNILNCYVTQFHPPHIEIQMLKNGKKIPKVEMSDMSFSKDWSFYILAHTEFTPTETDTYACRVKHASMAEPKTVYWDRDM


Assays:
[1] = target: T2, human MHC class I molecule HLA-A*0201 (human); experiment: peptide/HLA-A2 complex stability on T2 cells after peptide removal and emetine, 37 C, anti-HLA-A2 flow cytometry, normalized to CMV/HLA-A2
T2 construct: MHC class I molecule on the surface of T2 cells; also called HLA-A2; HLA-A201

[2] = target: T1, murine MHC class I molecule, H-2Kd; experiment: MHC class I stabilization assay on TAP-deficient RMAS-Kd cells, anti-H-2Kd-FITC, flow cytometry (background without peptide 6.07%)
[3] = target: T2, human MHC class I molecule HLA-A*0201; experiment: HLA-A2 stabilization on T2 cells loaded with 50 ug/ml peptide, anti-HLA-A2 (BB7.2) flow cytometry, MFI relative to CMV/A2

Row | % of peptide/HLA-A2 complex dissociated in 4 hours [1] [%] | % of RMAS-Kd cells staining positive for surface H-2Kd [2] [%] | relative HLA-A2 surface expression (% of CMV/A2 peptide binding) [3] [%] | Binder
1 | ~20 | – | – | RLLCALTSL [IGRP293]
2 | < 5 | – | – | FLFAVGFYL [IGRP215]
3 | – | 64.2 | – | KLPAVLLIL [murine IAPP precursor peptide mTV1]
4 | – | 58.5 | – | KYPAVLLIL (Modified version of TV1 with leucine to tyrosine at position 2; also called MTV2) [TV2]
5 | < 5 | – | – | KLQVFLIVL (also called HTV1; HTV-1) [IAPP5]
6 | – | 70.1 | – | RLLPLLALL (Peptide derived from the mouse insulin protein) [TV3]
7 | ~20 | – | > 80 | ALWMRLLPL [Insulin2]
8 | < 5 | – | > 80 | SLSPLQAEL [IA-2(172)]
9 | – | – | > 80 | SLAAGVKLL [IA-2(482)]
10 | ~20 | – | > 80 | GMAELMAGL [Phogrin331]
11 | < 5 | – | – | FLWSVFMLI [IGRP152]
12 | – | 66.5 | – | KYQAVTTTL (also called negative control peptide TUM) [TUM]
13 | < 5 | – | – | FLIVLSVAL [IAPP9]
14 | – | – | > 80 | LLPPLLEHL [IA-2(180)]
